By Kd is commonly meant a measure of binding affinity in units of concentration. A low value points to higher affinity.

The text below walks through data of PMC11505469.

Assay [1] addresses Human FcRn. Put plainly: SPR.
Assay [2] concerns the target CD3εδ. The experiment in a line: SPR. On the technique in general: In SPR one partner is held on a chip, and binding of the other changes the refractive index at the surface.

As for ISB 2001 (from UniProt P01857), the Kd turned out to be 240 nM in assay [1] and 41 nM in assay [2].
